# Laboratory results published in PMC8868134 (Antibiotics, 2022).
# Target: T1, MexB (RND inner membrane transporter) (Pseudomonas aeruginosa, UniProt P52002 1-1046)
# T1 sequence: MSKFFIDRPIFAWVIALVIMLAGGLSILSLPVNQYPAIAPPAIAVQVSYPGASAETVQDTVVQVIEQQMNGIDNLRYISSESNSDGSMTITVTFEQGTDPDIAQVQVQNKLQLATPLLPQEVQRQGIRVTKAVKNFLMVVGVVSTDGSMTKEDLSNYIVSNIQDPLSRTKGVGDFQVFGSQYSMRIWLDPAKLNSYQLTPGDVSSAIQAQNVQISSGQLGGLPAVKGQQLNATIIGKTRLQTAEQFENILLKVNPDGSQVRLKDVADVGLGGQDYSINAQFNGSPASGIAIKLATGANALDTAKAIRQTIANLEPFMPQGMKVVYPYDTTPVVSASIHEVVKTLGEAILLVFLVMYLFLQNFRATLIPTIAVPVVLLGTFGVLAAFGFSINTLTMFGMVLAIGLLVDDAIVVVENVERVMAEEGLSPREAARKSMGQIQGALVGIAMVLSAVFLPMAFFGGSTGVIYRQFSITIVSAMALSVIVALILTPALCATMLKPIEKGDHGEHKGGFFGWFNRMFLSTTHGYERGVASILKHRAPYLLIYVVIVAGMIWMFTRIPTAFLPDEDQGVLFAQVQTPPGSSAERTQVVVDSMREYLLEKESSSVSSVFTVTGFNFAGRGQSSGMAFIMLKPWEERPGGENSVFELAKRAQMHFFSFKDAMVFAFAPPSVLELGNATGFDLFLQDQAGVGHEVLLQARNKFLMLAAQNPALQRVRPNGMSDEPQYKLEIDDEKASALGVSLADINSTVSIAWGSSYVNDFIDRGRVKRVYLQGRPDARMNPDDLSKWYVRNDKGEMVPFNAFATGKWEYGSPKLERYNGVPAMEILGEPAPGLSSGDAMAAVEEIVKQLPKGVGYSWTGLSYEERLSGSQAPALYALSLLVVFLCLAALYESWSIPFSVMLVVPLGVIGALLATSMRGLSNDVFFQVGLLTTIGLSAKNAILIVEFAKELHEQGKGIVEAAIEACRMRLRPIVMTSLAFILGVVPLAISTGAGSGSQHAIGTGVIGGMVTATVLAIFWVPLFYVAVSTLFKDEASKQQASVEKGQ
# Experiment: BLI
binder,measurement,value
MexA wild type (periplasmic adaptor protein of MexA-MexB-OprM) (natural protein) CGKSEAPPPAQTPEVGIVTLEAQTVTLNTELPGRTNAFRIAEVRPQVNGIILKRLFKEGSDVKAGQQLYQIDPATYEADYQSAQANLASTQEQAQRYKLLVADQAVSKQQYADANAAYLQSKAAVEQARINLRYTKVLSPISGRIGRSAVTEGALVTNGQANAMATVQQLDPIYVDVTQPSTALLRLRRELASGQLERAGDNAAKVSLKLEDGSQYPLEGRLEFSEVSVDEGTGSVTIRAVFPNPNNELLPGMFVHAQLQEGVKQKAILAPQQGVTRDLKGQATALVVNAQNKVELRVIKADRVIGDKWLVTEGLNAGDKIITEGLQFVQPGVEVKTVPAKNVASAQKADAAPAKTDSKG,Kd,23 µM
same,koff,0.0055 s⁻¹
